Experimental data reported in patent US20230346938A1 (Memorial Sloan Kettering, published 2023).
Positions count from the first letter of the chain named.

T1: CD19 endogenously expressed on Raji and NALM-6 cells (human, UniProt P15391 20-556)
T1 construct: whole, on cells; also called CD19 on NALM-6 cells; CD19 on Raji cells
T1 sequence (looked up): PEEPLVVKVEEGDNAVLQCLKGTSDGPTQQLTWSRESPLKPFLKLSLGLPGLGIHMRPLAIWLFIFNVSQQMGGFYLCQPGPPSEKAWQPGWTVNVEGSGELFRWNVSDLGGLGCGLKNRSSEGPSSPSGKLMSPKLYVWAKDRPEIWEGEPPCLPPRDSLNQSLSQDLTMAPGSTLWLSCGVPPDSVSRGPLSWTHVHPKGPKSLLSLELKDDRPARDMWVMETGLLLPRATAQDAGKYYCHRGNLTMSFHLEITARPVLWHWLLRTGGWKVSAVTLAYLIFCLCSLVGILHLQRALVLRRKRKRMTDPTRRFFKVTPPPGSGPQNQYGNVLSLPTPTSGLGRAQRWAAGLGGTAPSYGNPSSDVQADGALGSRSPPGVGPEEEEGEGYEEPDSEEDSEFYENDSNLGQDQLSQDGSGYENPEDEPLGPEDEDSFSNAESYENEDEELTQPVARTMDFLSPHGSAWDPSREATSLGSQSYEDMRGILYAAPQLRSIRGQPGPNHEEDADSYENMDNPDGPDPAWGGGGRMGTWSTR

T2: soluble CD19-HSA fusion protein (CD19 extracellular domains fused to human serum albumin) (human, UniProt P15391 20-291)
T2 construct: extracellular domain; also called recombinant CD19 antigen; not shown: human serum albumin
T2 sequence (looked up): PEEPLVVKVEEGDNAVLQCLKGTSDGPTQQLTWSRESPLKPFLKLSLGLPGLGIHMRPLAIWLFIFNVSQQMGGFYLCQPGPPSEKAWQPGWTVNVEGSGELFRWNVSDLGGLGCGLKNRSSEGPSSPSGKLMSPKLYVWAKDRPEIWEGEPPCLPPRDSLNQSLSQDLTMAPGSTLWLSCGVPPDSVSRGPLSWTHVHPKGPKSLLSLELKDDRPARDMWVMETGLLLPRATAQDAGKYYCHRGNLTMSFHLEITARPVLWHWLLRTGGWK

B1: Antibody 6 (antibody, V domains shown)
VH: QVQLVESGGGVVQPGRSLRLSCAASGFTFSSYGMHWVRQAPGKGLEWVALIWYDGSNKYYADSVKGRFTISRDNSKNTLYLQMNSLRAEDTAVYYCAKPVEGLLRGFDYWGQGTLVTVSS
VL: EIVLTQSPGTLSLSPGERATLSCRASQSVRSSYLAWYQQKPGQAPRLLIYGASSRATGIPDRFSGSGSGTDFTLTISRLEPEDFAVYYCQQAGVPPLTFGGGTKVEIK
notes: Human IgG produced in Adimab yeast, purified on Protein A; Has the VH and VL of #6 scFv; also called CD19 Antibody 6
B2: Antibody 5 (antibody, V domains shown)
VH: B1 VH
VL: EIVLTQSPGTLSLSPGERATLSCRASQSVSSSYLAWYQQKPGQAPRLLIYGASSRATGIPDRFSGSGSGTDFTLTISRLEPEDFAVYYCQQAGGVPPLTFGGGTKVEIK
notes: Human IgG produced in Adimab yeast, purified on Protein A; Has the VH and VL of #5 scFv; also called CD19 Antibody 5
B3: Antibody 7 (antibody, V domains shown)
VH: B1 VH
VL: B2 VL with L4M, L98F
notes: Human IgG produced in Adimab yeast, purified on Protein A; Has the VH and VL of #7 scFv; also called CD19 Antibody 7
B4: Antibody 2 (antibody, V domains shown)
VH: B1 VH
VL: B1 VL with R30S, V94A, P95V, L97I
notes: Human IgG produced in Adimab yeast, purified on Protein A; also called CD19 Antibody 2
B5: Antibody 1 (antibody, V domains shown)
VH: B1 VH
VL: B1 VL with L4M, R30S, S54N, P95F, L97F
notes: Human IgG produced in Adimab yeast, purified on Protein A; Has the VH and VL of #1 scFv; also called CD19 Antibody 1
B6: Antibody 4 (antibody, V domains shown)
VH: B1 VH
VL: B2 VL with A92V, G93D, G94S, V95L, P96H, L98F
notes: Human IgG produced in Adimab yeast, purified on Protein A; Has the VH and VL of #4 scFv; also called CD19 Antibody 4
B7: Antibody 15 (antibody, V domains shown)
VH: B1 VH
VL: B1 VL with R30S, S54R, V94I, L97Y
notes: Human IgG produced in Adimab yeast, purified on Protein A; Has the VH and VL of #15 scFv; also called CD19 Antibody 15

What follows are binders tested against T1, CD19 endogenously expressed on Raji and … (assay: flow cytometry, serial dilution on NALM-6 cells).

Row | EC50 | Binder
1 | 0.18 nM | B1
2 | 0.219 nM | B2
3 | 0.21 nM | B3
4 | 0.314 nM | B4
5 | 0.588 nM | B5
6 | 0.519 nM | B6
7 | 0.27 nM | B7

The binders below were run against T2, soluble CD19-HSA fusion protein (CD19 …) (assay: BLI (ForteBio Octet RED384), IgG on AHC sensors, 100 nM soluble CD19-HSA, 1:1 model).

Row | Kd | koff | kon | Binder
8 | 6.4 nM | 0.000484 s⁻¹ | 75600 M⁻¹ s⁻¹ | B1
9 | 10.4 nM | 0.000785 s⁻¹ | 75600 M⁻¹ s⁻¹ | B2
10 | 14.9 nM | 0.00105 s⁻¹ | 70000 M⁻¹ s⁻¹ | B3
11 | 9.01 nM | 0.000554 s⁻¹ | 61500 M⁻¹ s⁻¹ | B4
12 | 32.9 nM | 0.00176 s⁻¹ | 53400 M⁻¹ s⁻¹ | B5
13 | 9.27 nM | 0.000218 s⁻¹ | 23500 M⁻¹ s⁻¹ | B6
14 | 20.8 nM | 0.00145 s⁻¹ | 69800 M⁻¹ s⁻¹ | B7
